Results: patent publication US20230002481A1 (Chugai, published 2023)

T1: recombinant human C1r2s2 tetramer (human, UniProt P09871 16-688; P00736 18-705)
T1 construct: Heterotetramer of two C1r and two C1s chains, co-expressed in FreeStyle293-F cells; also called human C1r2s2s
T1 chain 1: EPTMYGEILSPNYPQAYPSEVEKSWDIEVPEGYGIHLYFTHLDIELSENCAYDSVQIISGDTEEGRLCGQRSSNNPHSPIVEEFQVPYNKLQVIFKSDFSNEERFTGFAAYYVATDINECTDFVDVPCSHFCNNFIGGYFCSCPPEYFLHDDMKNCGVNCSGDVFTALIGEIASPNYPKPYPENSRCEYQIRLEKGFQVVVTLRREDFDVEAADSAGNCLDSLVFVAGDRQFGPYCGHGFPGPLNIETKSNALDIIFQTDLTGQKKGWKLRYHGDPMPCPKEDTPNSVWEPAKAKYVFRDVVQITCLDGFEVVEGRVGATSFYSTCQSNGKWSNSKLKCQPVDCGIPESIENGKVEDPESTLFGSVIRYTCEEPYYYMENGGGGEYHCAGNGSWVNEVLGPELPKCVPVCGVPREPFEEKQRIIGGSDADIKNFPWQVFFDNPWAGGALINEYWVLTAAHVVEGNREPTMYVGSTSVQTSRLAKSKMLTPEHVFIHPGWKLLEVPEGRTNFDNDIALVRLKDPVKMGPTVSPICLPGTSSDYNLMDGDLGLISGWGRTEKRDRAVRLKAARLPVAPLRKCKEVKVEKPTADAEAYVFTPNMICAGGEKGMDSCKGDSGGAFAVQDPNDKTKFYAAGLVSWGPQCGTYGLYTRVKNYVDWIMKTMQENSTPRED
T1 chain 2: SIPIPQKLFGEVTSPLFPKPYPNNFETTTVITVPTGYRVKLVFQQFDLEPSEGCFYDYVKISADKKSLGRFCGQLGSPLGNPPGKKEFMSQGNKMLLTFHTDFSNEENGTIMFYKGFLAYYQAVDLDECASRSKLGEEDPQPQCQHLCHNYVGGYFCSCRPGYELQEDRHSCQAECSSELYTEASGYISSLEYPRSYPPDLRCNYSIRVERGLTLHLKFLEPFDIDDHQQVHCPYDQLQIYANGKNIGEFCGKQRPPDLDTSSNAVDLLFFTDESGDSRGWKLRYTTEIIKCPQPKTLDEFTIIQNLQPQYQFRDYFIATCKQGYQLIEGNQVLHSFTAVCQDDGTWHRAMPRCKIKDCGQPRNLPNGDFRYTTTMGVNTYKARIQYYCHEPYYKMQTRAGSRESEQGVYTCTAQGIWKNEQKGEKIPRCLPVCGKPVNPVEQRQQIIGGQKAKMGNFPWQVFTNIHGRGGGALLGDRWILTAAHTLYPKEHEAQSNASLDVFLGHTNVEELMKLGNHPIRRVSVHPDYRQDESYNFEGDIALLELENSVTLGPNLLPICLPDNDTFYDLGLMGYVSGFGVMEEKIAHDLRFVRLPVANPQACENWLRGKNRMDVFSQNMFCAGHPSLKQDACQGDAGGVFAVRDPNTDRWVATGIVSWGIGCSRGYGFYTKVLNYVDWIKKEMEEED

B1: COS0098pHv1 (antibody, V domains shown)
VH: QVQLVQSGAEVKKPGSSVKVSCKASGHTFSKYTVSWIRQPPGKGLEWIGIINTGGSAYPATWAKGRVTITADESTSTAYMELSSLRSEDTAVYYCARGAGDTDYTNLWGQGTLVTVSS
VL: DIQMTQSPSSLSASVGDRVTITCQASENIYSALAWYQQKPGQPPKLLIYGASQLESGVPSRFSGSGSGTDFTLTISSLQPEDFATYYCQQYYFTSHTFGQGTKVEIK
notes: Humanized, optimized pH-dependent variant of COS0098bb
B2: COS0098bb (antibody, V domains shown)
VH: QSVEESGGRLVTPGTPLTLTCTVSGFSLTKYTVSWVRQAPGKGLEWIGIINTGGSAYYATWAKGRFTFSKTSTTVDLQITSPTTEDTATYFCARGNGDTDYTNLWGPGTLVTVSS
VL: QVLTQTPSSVSEPVGGTVTINCQASENIYSALAWYQQKPGQPPKLLIYGASNLESGVPSRFKGSGSGTQFTLTISDLECADAATYYCQQYYFTSSTFGGGTKVEIK
notes: Anti-C1s rabbit antibody, parent of COS0098pHv1; the antibody was captured by ProA/G; also called anti-C1s antibody COS0098bb

Biological target: T1, recombinant human C1r2s2 tetramer
Assay: SPR (Biacore), pH5.8*: dissociation at pH5.8 after association and dissociation at pH7.4, 37 C, Scrubber fit
Description: The kinetic parameters of anti-C1s antibodies against recombinant human C1s (as described in PCT/JP2018/042054), human C1r2s2, and cyno C1r2s2 His/Flag (also referred as cyno C1r2s2 in the Table and Figures) were assessed at pH7.4 and pH5.8, at 37 degrees C. using BIACORE (registered trademark) T200 instrument (GE Healthcare) or BIACORE 4000 (GE Healthcare). ProAG (Pierce) was immobilized onto a CM4 sensorchip using amine coupling kit (GE Healthcare) according to the recommended settings by GE Healthcare. Antibodies and analytes were diluted into the respective running buffers, ACES pH7.4 and pH5.8 (20 mM ACES, 150 mM NaCl, 1.2 mM CaCl₂, 1 mg/ml BSA, 1 mg/ml CMD, 0.05% Tween 20, 0.005 w/v % NaN₃). Each antibody was captured onto the sensor surface by ProA/G. Antibody capture levels were typically 100-200 resonance units (RU). Then, recombinant C1s was injected at concentrations of 25 and 50 nM followed by dissociation at pH7.4 and pH5.8. The surface was regenerated using 10 mM Glycine-HCl, pH1.5. Kinetic parameters at neutral pH conditions and acidic conditions were determined by fitting the sensorgrams with 1:1 binding model using BIACORE (registered trademark) T200 Evaluation software, version 2.0 (GE Healthcare) or BIACORE 4000 Evaluation software. The dissociation rate at pH5.8 (after dissociation at pH7.4, indicated as pH5.8* in TABLE 2) was determined by processing and fitting data using Scrubber 2.0 (BioLogic Software) curve fitting software. The association rate (ka), dissociation rate (kd), binding affinity (KD) at pH7.4 and pH5.8 condition, and dissociation rate (kd) at pH5.8* condition of the antibodies are listed in TABLE 2. Some kinetic parameters of COS0098pHv1 in acidic condition were not correctly calculated because of its weak binding response.
Also, to observe the cross-reactivity of anti-C1s antibodies against human C1r2s2 and cyno C1r2s2 (cyno C1r2s2 His/Flag), BIACORE (registered trademark) kinetics analysis was performed.

Binder | koff
B1 | 0.107 s⁻¹
B2 | 0.000909 s⁻¹
